{
  "source": "paper PMC13486833",
  "about": "(2026)",
  "binders": {"B1": {"name": "3S-HMGB1 1–214 (natural protein)", "chain": "GKGDPKKPRGKMSSYAFFVQTSREEHKKKHPDASVNFSEFSKKSSERWKTMSAKEKGKFEDMAKADKARYEREMKTYIPPKGETKKKFKDPNAPKRPPSAFFLFSSEYRPKIKGEHPGLSIGDVAKKLGEMWNNTAADDKQPYEKKAAKLKEKYEKDIAAYRAKGKPDAAKKGVVKAEKSKKKKEEEEDEEDEEDEEEEEDEEDEDEEEDDDDE"}, "B2": {"name": "DS-HMGB1 1–164 (domain or fragment)", "chain": "GKGDPKKPRGKMSSYAFFVQTCREEHKKKHPDASVNFSEFSKKCSERWKTMSAKEKGKFEDMAKADKARYEREMKTYIPPKGETKKKFKDPNAPKRPPSAFFLFCSEYRPKIKGEHPGLSIGDVAKKLGEMWNNTAADDKQPYEKKAAKLKEKYEKDIAAYRAK", "modifications": "disulfide bond between C22 and C44"}, "B3": {"name": "DS Box A 1-88 (protein)", "chain": "GKGDPKKPRGKMSSYAFFVQTCREEHKKKHPDASVNFSEFSKKCSERWKTMSAKEKGKFEDMAKADKARYEREMKTYIPPKGETKKKF", "modifications": "intramolecular disulfide Cys22-Cys44 in paper numbering (UniProt Cys23-Cys45); paper numbering omits the initiator Met (offset +1: paper Pro8-Ile78 = UniProt 9-79); any initiator Met or tag remnant left out"}, "B4": {"name": "FR-HMGB1 1–214 (natural protein)", "chain": "MGKGDPKKPRGKMSSYAFFVQTCREEHKKKHPDASVNFSEFSKKCSERWKTMSAKEKGKFEDMAKADKARYEREMKTYIPPKGETKKKFKDPNAPKRPPSAFFLFCSEYRPKIKGEHPGLSIGDVAKKLGEMWNNTAADDKQPYEKKAAKLKEKYEKDIAAYRAKGKPDAAKKGVVKAEKSKKKKEEEEDEEDEEDEEEEEDEEDEDEEEDDDDE"}, "B5": {"name": "DS-HMGB1 1–214 (natural protein)", "chain": "MGKGDPKKPRGKMSSYAFFVQTCREEHKKKHPDASVNFSEFSKKCSERWKTMSAKEKGKFEDMAKADKARYEREMKTYIPPKGETKKKFKDPNAPKRPPSAFFLFCSEYRPKIKGEHPGLSIGDVAKKLGEMWNNTAADDKQPYEKKAAKLKEKYEKDIAAYRAKGKPDAAKKGVVKAEKSKKKKEEEEDEEDEEDEEEEEDEEDEDEEEDDDDE", "modifications": "disulfide bond between C22 and C44"}, "B6": {"name": "DS-HMGB1 1–184 (domain or fragment)", "chain": "GKGDPKKPRGKMSSYAFFVQTCREEHKKKHPDASVNFSEFSKKCSERWKTMSAKEKGKFEDMAKADKARYEREMKTYIPPKGETKKKFKDPNAPKRPPSAFFLFCSEYRPKIKGEHPGLSIGDVAKKLGEMWNNTAADDKQPYEKKAAKLKEKYEKDIAAYRAKGKPDAAKKGVVKAEKSKKKK", "modifications": "disulfide bond between C22 and C44"}, "B7": {"name": "dBB12L (FR-HMGB1 89–174::89–174) (other)", "chain": "KDPNAPKRPPSAFFLFCSEYRPKIKGEHPGLSIGDVAKKLGEMWNNTAADDKQPYEKKAAKLKEKYEKDIAAYRAKGKPDAAKKGVKDPNAPKRPPSAFFLFCSEYRPKIKGEHPGLSIGDVAKKLGEMWNNTAADDKQPYEKKAAKLKEKYEKDIAAYRAKGKPDAAKKGV", "modifications": "fully reduced Cys105 (printed numbering) in both copies; printed n = entry n+1 (C22/C44/C105 = C23/C45/C106 in P09429); direct tandem fusion, with native flanks acting as the linker"}},
  "key": {"[1]": {"target": "T1, RAGE-Fc chimera protein (UniProt Q15109 23-342)", "T1 sequence (Q15109 23-342, change not shown)": "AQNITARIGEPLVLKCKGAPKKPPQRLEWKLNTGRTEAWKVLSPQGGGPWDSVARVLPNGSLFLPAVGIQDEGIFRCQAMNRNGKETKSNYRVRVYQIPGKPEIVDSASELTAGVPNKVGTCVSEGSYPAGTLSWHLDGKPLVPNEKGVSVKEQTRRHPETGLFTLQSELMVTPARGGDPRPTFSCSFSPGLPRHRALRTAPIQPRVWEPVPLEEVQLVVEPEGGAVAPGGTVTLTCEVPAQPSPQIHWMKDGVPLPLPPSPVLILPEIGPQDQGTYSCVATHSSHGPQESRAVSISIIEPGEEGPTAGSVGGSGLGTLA", "test": "BLI"}, "[2]": {"target": "T1, RAGE-Fc chimera protein", "test": "ELISA"}, "[3]": {"target": "T1, RAGE-Fc chimera protein", "test": "BLI; kinetics"}, "[4]": {"target": "T1, RAGE-Fc chimera protein", "test": "BLI; saturation"}},
  "data": [
    {"binder": "B1", "values": [
      {"measurement": "koff", "setting": "[1]", "value": 0.015, "unit": "s⁻¹"},
      {"measurement": "Kd", "setting": "[2]", "value": 7.22, "unit": "nM"},
      {"measurement": "Kd", "setting": "[3]", "value": 900, "unit": "nM"},
      {"measurement": "Kd", "setting": "[4]", "value": 3000, "unit": "nM"}
    ]},
    {"binder": "B2", "values": [
      {"measurement": "koff", "setting": "[1]", "value": 0.152, "unit": "s⁻¹"},
      {"measurement": "Kd", "setting": "[3]", "value": 900, "unit": "nM"},
      {"measurement": "Kd", "setting": "[4]", "value": 3100, "unit": "nM"}
    ]},
    {"binder": "B3", "values": [
      {"measurement": "koff", "setting": "[1]", "value": 0.439, "unit": "s⁻¹"},
      {"measurement": "Kd", "setting": "[3]", "value": 15600, "unit": "nM"},
      {"measurement": "Kd", "setting": "[4]", "value": 53400, "unit": "nM"}
    ]},
    {"binder": "B4", "values": [
      {"measurement": "koff", "setting": "[1]", "value": 0.041, "unit": "s⁻¹"},
      {"measurement": "Kd", "setting": "[2]", "value": 86.1, "unit": "nM"},
      {"measurement": "Kd", "setting": "[3]", "value": 800, "unit": "nM"},
      {"measurement": "Kd", "setting": "[4]", "value": 2300, "unit": "nM"}
    ]},
    {"binder": "B5", "values": [
      {"measurement": "koff", "setting": "[1]", "value": 0.043, "unit": "s⁻¹"},
      {"measurement": "Kd", "setting": "[2]", "value": 4.35, "unit": "nM"},
      {"measurement": "Kd", "setting": "[3]", "value": 200, "unit": "nM"},
      {"measurement": "Kd", "setting": "[4]", "value": 1300, "unit": "nM"}
    ]},
    {"binder": "B6", "values": [
      {"measurement": "koff", "setting": "[1]", "value": 0.067, "unit": "s⁻¹"},
      {"measurement": "Kd", "setting": "[2]", "value": 33.9, "unit": "nM"},
      {"measurement": "Kd", "setting": "[3]", "value": 200, "unit": "nM"},
      {"measurement": "Kd", "setting": "[4]", "value": 500, "unit": "nM"}
    ]},
    {"binder": "B7", "values": [
      {"measurement": "Kd", "setting": "[3]", "value": 1300, "unit": "nM"}
    ]}
  ]
}
